Laboratory results as given in IntAct's records for PubMed 20947020.

B1: AP-2 complex subunit mu (Rattus norvegicus (Rat)), P84092 (parent)
chain: MIGGLFIYNHKGEVLISRVYRDDIGRNAVDAFRVNVIHARQQVRSPVTNIARTSFFHVKRSNIWLAAVTKQNVNAAMVFEFLYKMCDVMAAYFGKISEENIKNNFVLIYELLDEILDFGYPQNSETGALKTFITQQGIKSQHQTKEEQSQITSQVTGQIGWRREGIKYRRNELFLDVLESVNLLMSPQGQVLSAHVSGRVVMKSYLSGMPECKFGMNDKIVIEKQGKGTADETSKSGKQSIAIDDCTFHQCVRLSKFDSERSISFIPPDGEFELMRYRTTKDIILPFRVIPLVREVGRTKLEVKVVIKSNFKPSLLAQKIEVRIPTPLNTSGVQVICMKGKAKYKASENAIVWKIKRMAGMKESQISAEIELLPTNDKKKWARPPISMNFEVPFAPSGLKVRYLKVFEPKLNYSDHDVIKWVRYIGRSGIYETRC
partner: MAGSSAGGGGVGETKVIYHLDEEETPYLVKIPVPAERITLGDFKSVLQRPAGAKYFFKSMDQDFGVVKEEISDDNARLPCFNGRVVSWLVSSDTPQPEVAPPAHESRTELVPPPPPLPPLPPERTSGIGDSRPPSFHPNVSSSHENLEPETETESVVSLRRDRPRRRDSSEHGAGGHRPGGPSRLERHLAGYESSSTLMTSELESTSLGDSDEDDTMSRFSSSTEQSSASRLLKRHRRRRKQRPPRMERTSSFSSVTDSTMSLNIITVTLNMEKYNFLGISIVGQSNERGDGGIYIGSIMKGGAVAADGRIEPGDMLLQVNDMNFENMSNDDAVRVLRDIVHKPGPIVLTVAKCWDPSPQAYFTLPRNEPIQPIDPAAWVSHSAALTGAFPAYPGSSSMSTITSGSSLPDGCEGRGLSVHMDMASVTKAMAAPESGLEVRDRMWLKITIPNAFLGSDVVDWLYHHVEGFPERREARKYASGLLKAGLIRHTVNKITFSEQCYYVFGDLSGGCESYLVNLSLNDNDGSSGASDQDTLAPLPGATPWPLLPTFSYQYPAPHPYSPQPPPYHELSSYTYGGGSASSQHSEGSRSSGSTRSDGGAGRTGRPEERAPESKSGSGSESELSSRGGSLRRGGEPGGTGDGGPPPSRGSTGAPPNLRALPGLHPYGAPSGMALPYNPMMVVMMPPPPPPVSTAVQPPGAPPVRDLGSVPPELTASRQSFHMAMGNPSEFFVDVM
B2: Segment polarity protein dishevelled homolog DVL-2 (Mus musculus), Q60838 (parent)
chain: B1 partner

Variants of: B1
Details: with dvl2_mouse Dvl2, Q60838

Variant	effect of a mutation on the interaction
E211A;K213D;K405D;F407A	decreasing interaction
E211A;K213D;K405D	decreasing interaction
W421A	disrupting interaction
K213D;K405D	decreasing interaction

Variants of: B2
Details: with ap2m1_rat Ap2m1, P84092

Variant	effect of a mutation on the interaction
D441K;R489A	decreasing interaction
D441K	decreasing interaction
D441K;N451A	decreasing interaction
D441K;N451A;R489A	decreasing interaction
K446A	decreasing interaction strength
K446M	decreasing interaction strength
N451A	decreasing interaction
R489A	decreasing interaction
Y561A	disrupting interaction

Variants of: B2
Details: with ap2b1_bovin AP2B1, P63009
Chain of ap2b1_bovin AP2B1, P63009 (P63009 whole entry): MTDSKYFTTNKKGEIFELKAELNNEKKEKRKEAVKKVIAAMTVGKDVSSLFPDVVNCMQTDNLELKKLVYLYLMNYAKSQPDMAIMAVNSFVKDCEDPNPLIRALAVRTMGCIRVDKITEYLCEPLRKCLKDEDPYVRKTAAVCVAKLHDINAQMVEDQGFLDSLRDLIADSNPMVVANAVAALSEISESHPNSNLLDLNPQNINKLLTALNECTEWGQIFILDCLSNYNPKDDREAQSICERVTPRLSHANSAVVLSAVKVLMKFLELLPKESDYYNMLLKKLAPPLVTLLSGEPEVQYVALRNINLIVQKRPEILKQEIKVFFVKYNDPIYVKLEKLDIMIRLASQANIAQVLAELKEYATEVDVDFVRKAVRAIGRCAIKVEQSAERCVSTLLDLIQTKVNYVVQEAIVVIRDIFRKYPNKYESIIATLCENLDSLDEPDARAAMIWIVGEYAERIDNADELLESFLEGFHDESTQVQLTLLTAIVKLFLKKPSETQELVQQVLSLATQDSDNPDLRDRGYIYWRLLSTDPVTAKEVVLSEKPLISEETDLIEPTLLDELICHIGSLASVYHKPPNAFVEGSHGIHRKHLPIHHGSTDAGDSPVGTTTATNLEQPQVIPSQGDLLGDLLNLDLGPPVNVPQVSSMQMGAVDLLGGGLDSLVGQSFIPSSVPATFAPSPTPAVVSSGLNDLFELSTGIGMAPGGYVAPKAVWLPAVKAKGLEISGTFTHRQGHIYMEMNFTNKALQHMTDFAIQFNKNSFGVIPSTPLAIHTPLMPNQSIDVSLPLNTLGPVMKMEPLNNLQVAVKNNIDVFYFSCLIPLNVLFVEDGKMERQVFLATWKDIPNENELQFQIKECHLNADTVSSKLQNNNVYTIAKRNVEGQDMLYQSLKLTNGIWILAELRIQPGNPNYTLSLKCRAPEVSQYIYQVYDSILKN

Variant	effect of a mutation on the interaction
Y561A	disrupting interaction
